Results as given in patent US20230279138A1 (CHIA TAI TIANQING PHARMACEUTICAL GROUP, published 2023).

Tests used:
[1] = target: T1, CD3 on Jurkat cells (CD3+/CD20- cells) (human, UniProt P07766 23-207; P04234 22-171; P09693 23-182); test: cell-based or functional assay
[2] = target: T2, CD20 on Raji cells (CD20+/CD3- cells) (human, UniProt P11836 1-297); test: cell-based or functional assay
T2 sequence (looked up): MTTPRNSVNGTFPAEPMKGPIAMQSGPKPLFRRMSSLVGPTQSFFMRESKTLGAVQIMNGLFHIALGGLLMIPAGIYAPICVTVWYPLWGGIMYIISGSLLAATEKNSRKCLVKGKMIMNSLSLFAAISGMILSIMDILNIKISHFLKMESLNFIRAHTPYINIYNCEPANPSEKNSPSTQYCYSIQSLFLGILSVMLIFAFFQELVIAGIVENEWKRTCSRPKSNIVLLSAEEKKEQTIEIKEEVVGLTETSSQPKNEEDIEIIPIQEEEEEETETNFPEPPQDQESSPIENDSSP

[3] = target: T2, CD20 on Raji cells (CD20+/CD3- cells); test: cell-based or functional assay; remark: listed apart in the source
[4] = target: T2, CD20 on Raji cells (CD20+/CD3- cells); test: flow cytometry on Raji cells (CD20+/CD3-)
Description: (§1) After incubation, the cells were washed twice with cold 1% BSA/1×PBS. […] After being washed twice, the geometric mean fluorescence (MFI) of the stained cells was measured using a FACS Canto II […] (BD Biosciences). Wells containing no antibody or containing only fluorescent secondary antibody were used to establish background fluorescence. The EC50 values for cell binding were determined using GraphPad Prism 5 software (GraphPad Software, La Jolla, Calif.); each value was calculated by four-parameter non-linear regression analysis.

[5] = target: T2, CD20 on Raji cells (CD20+/CD3- cells); test: FACS on Raji cells after 14 days at 37 C in human serum
Description: as §1
(§2) The antibody was mixed with freshly collected human serum and the proportion of serum in the mixture sample was ensured to be >95%. The mixture sample was aliquoted and incubated at 37° C. for 0-14 days. […] The bindings of each sample to Raji or Jurkat cells was analyzed by FACS.

[6] = target: T1, CD3 on Jurkat cells (CD3+/CD20- cells); test: flow cytometry on Jurkat 2B8 cells (CD3+/CD20-)
Description: as §1

[7] = target: T2, CD20 on Raji cells (CD20+/CD3- cells); test: FACS on Raji cells after 0, 1, 4 or 7 days at 37 C in human serum
Description: as §1, §2

[8] = target: T2, CD20 on Raji cells (CD20+/CD3- cells); test: cell-based or functional assay; remark: listed apart in the source
[9] = target: T2, CD20 on Raji cells (CD20+/CD3- cells); test: cell-based or functional assay; remark: listed apart in the source

T1 sequence (P07766 23-207, chain 1 of 3): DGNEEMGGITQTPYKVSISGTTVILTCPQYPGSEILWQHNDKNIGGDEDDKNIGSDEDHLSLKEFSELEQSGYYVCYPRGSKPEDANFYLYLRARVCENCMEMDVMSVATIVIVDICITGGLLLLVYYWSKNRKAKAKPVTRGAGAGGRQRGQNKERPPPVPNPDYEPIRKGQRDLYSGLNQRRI
T1 sequence (P04234 22-171, chain 2 of 3): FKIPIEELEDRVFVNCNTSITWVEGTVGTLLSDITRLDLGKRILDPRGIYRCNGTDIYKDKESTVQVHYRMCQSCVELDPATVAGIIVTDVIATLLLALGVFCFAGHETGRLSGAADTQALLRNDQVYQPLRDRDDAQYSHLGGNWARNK
T1 sequence (P09693 23-182, chain 3 of 3): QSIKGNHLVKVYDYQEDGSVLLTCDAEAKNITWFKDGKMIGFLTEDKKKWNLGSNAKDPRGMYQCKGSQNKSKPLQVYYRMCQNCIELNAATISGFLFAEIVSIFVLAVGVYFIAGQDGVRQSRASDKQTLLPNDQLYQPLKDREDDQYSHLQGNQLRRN

- Biological activity (%) (EC50 of reference/EC50 of test sample; Jurkat luciferase reporter with Raji cells), lyophilized formulation, T0 [1]: 114%
- EC50 of IL-2 release, CD4+ T cells with Raji cells [3]: 0.0114 nM
- EC50 of TNF-α release, CD4+ T cells with Raji cells [3]: 0.0135 nM
- EC50 [4]: 2.5 nM
- TOP MFI [4]: 66700 MFI
- EC50 (read off the curve) [5]: ~6 nM
- EC50 [6]: 41.7 nM
- TOP MFI [6]: 4080 MFI
- EC50 (read off the curve) [7]: ~6 nM
- EC50 of CD25 expression, CD4+ T cells with Raji cells [8]: 0.0006 nM
- EC50 of CD25 expression, CD8+ T cells with Raji cells [8]: 0.0008 nM
- EC50 of CD69 expression, CD4+ T cells with Raji cells [9]: 0.0002 nM
- EC50 of CD69 expression, CD8+ T cells with Raji cells [9]: 0.0004 nM
B1: W3278-U2T3.F18R-1.uIgG4.SP (bispecific antibody)
heavy 1: QVQLQQPGAELVKPGASVKMSCKASGYTFTSYNMHWVKQTPGRGLEWIGAIYPGNGDTSYNQKFKGKATLTADKSSSTAYMQLSSLTSEDSAVYYCARSTYYGGDWYFNVWGAGTTVTVSAASTKGPSVFPLAPCSRSTSESTAALGCLVKDYFPEPVTVSWNSGALTSGVHTFPAVLQSSGLYSLSSVVTVPSSSLGTKTYTCNVDHKPSNTKVDKRVGGGGSGGGGSQVQLVQSGAEVKKPGSSVKVSCKASGFAFTDYYIHWVRQAPGQGLEWMGWISPGNVNTKYNENFKGRVTITADKSTSTAYMELSSLRSEDTAVYYCARDGYSLYYFDYWGQGTLVTVLEDLKNVFPPEVAVFEPSEAEISHTQKATLVCLATGFYPDHVELSWWVNGKEVHSGVCTDPQPLKEQPALQDSRYALSSRLRVSATFWQNPRNHFRCQVQFYGLSENDEWTQDRAKPVTQIVSAEAWGRYGPPCPPCPAPEFLGGPSVFLFPPKPKDTLMISRTPEVTCVVVDVSQEDPEVQFNWYVDGVEVHNAKTKPREEQFNSTYRVVSVLTVLHQDWLNGKEYKCKVSNKGLPSSIEKTISKAKGQPREPQVYTLPPCQEEMTKNQVSLWCLVKGFYPSDIAVEWESNGQPENNYKTTPPVLDSDGSFFLYSRLTVDKSRWQEGNVFSCSVMHEALHNHYTQKSLSLSLG
heavy 2: QVQLQQPGAELVKPGASVKMSCKASGYTFTSYNMHWVKQTPGRGLEWIGAIYPGNGDTSYNQKFKGKATLTADKSSSTAYMQLSSLTSEDSAVYYCARSTYYGGDWYFNVWGAGTTVTVSAASTKGPSVFPLAPCSRSTSESTAALGCLVKDYFPEPVTVSWNSGALTSGVHTFPAVLQSSGLYSLSSVVTVPSSSLGTKTYTCNVDHKPSNTKVDKRVESKYGPPCPPCPAPEFLGGPSVFLFPPKPKDTLMISRTPEVTCVVVDVSQEDPEVQFNWYVDGVEVHNAKTKPREEQFNSTYRVVSVLTVLHQDWLNGKEYKCKVSNKGLPSSIEKTISKAKGQPREPQVCTLPPSQEEMTKNQVSLSCAVKGFYPSDIAVEWESNGQPENNYKTTPPVLDSDGSFFLVSRLTVDKSRWQEGNVFSCSVMHEALHNHYTQKSLSLSLG
light 1: QIVLSQSPAILSASPGEKVTMTCRASSSVSYIHWFQQKPGSSPKPWIYATSNLASGVPVRFSGSGSGTSYSLTISRVEAEDAATYYCQQWTSNPPTFGGGTKLEIKRTVAAPSVFIFPPSDEQLKSGTASVVCLLNNFYPREAKVQWKVDNALQSGNSQESVTEQDSKDSTYSLSSTLTLSKADYEKHKVYACEVTHQGLSSPVTKSFNRGEC
light 2: DIVMTQSPDSLAVSLGERATINCKSSQSLLNSRTRKNYLAWYQQKPGQPPKLLIYWASTRQSGVPDRFSGSGSGTDFTLTISSLQAEDVAVYYCTQSHTLRTFGGGTKVEIKPDIQNPDPAVYQLRDSKSSDKSVCLFTDFDSQTQVSQSKDSDVYITDKCVLDMRSMDFKSNSAVAWSQKSDFACANAFQNSIIPEDTFFPSPESS
notes: Human IgG4 S228P, knobs-into-holes; also called WBP3278 lead Ab; W3278 lead Ab
- cytotoxicity EC50, CD8+ T cells against NAMALWA cells (FACS) [2]: 0.0468 nM
- cytotoxicity EC50, CD8+ T cells against Raji cells (FACS) [2]: 0.00052 nM
- cytotoxicity EC50, CD8+ T cells against Ramos cells (FACS) [2]: 0.00125 nM
- EC50 ratio IL-2 release/Raji cell killing [3]: 22
- EC50 ratio TNFα release/Raji cell killing [3]: 26
